Source: patent publication US20230391876A1 (HANALL BIOPHARMA, published 2023)

Columns and labels:
[1] = biological target: T1, hFcRn on hFcRn-expressing HEK293 cells (human, UniProt P55899 24-365; P61769 21-119); assay: FACS on hFcRn HEK293 cells, pH 6.0; head prints 'FACS binding (EC50, nM)', taken as blocking of competitor Alexa488-hIgG1 (Example 4.5)
T1 construct: whole, on cells; also called hFcRn HEK293
Experimental: 1×10⁷ hFcRn HEK293 cells were seeded into a T75 flask and cultured for 24 hours. After culturing, the cells were removed and placed in a 96 well plate at 1×10⁵ cells for each sample in duplicate. […] After the reaction was completed, it was centrifuged to remove the supernatant. 200 μL of the reaction buffer was added to resuspend the cell pellet, and then the MFI value was measured in a FACS instrument.

[2] = biological target: T2, shFcRn (soluble human FcRn) (human, UniProt P55899 24-297; P61769 21-119); assay: SPR, hFcRn immobilized on chip, pH 7.4
T2 construct: extracellular domain; Printed only as 'soluble human FcRn'; also called hFcRn (immobilized on a chip)
Experimental: (§1) Kinetic analysis was performed using a 1:1 Langmuir binding model, and the average KD value was obtained by repeating the analysis 6 times in each condition of pH 6.0 and pH 7.4.
(§2) Chip activation was performed under EDAC/NHS 0.5×, 30 μL/min, and 300 sec conditions. Thereafter, shFcRn was prepared at 2 μg/mL, 250 μL using an acetate buffer (pH 5.5), and immobilization was performed while flowing at 30 μL/min. The reaction was stopped when the immobilization level corresponded to 200 RU to 300 RU. Thereafter, deactivation was performed using ethanolamine at 30 μL/min, 300 sec. […] Sample dilution was performed using 1×PBST (pH 7.4) or 1×PBST (pH 6.0) buffer depending on the analysis pH. In the sample analysis conditions, association was carried out by reaction at 50 μL/min, 200 sec, and dissociation was carried out by reaction at 50 μL/min, 600 sec. Thereafter, reaction was carried out using a glycine buffer (pH 2.0) at 100 μL/min, 18 sec to perform regeneration. For kinetic analysis, samples were prepared and reacted once in three cells to which shFcRn was immobilized. Then three kinetic values were obtained, and then an average KD value was measured. When analyzing reaction signals, interspot-referencing and signals in which only buffer was analyzed were used for a double-referencing.

[3] = biological target: T1, hFcRn on hFcRn-expressing HEK293 cells; assay: FACS on hFcRn HEK293 cells, 10 nM antibody, pH 7.4
Experimental: (§3) The analysis of hFcRn binding using FACS was carried out under two conditions of pH 6.0 and pH 7.4. hFcRn-expressing 1TEK293 (hFcRn HEK293) cells were diluted with the reaction buffer (0.0500 BSA in PBS, pH 6.0 or pH 7.4) and prepared in duplicate in a 96 well plate at 1×10⁵ cells for each sample. In addition, each antibody sample was diluted with the reaction buffer to 10 nM, and then put into a 96 well plate, and incubated at 4° C. for 90 minutes. Thereafter, the plate was centrifuged to remove the supernatant, and then Alexa488-goat anti-hIgG Ab (1:200) was added thereto, and again incubated at 4° C. for 90 minutes. After the reaction was completed, it was centrifuged to remove the supernatant, and 200 μL of the reaction buffer was added to resuspend the cell pellet, and then the MFI value was measured in a FACS instrument.

[4] = biological target: T1, hFcRn on hFcRn-expressing HEK293 cells; assay: FACS on hFcRn HEK293 cells, 10 nM antibody, pH 6.0
Experimental: as §3

[5] = biological target: T2, shFcRn (soluble human FcRn); assay: SPR, shFcRn immobilized on chip, antibody as analyte, pH 6.0;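 also: kinetics fitted with a 1:1 Langmuir model, association 200 s and dissociation 600 s, samples diluted in PBST, double-referenced signals, values averaged across three shFcRn-coated cells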
Experimental: as §1, §2

[6] = biological target: T2, shFcRn (soluble human FcRn); assay: SPR, shFcRn immobilized on chip, antibody as analyte, pH 7.4;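 also: kinetics fitted with a 1:1 Langmuir model, association 200 s and dissociation 600 s in PBST, double-referenced against buffer-only and interspot signals, values averaged over repeated runs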
Experimental: as §1, §2

[7] = biological target: T2, shFcRn (soluble human FcRn); assay: SPR, hFcRn immobilized on chip, pH 6.0
Experimental: as §1, §2

| EC50 [1] | Kd [2] | MFI [3] | MFI [4] | Kd [5] | Kd [6] | koff [5] | kon [5] | koff [6] | kon [6] | Kd [7] | Binder |
| --- | --- | --- | --- | --- | --- | --- | --- | --- | --- | --- | --- |
| 1400 pM | 210 pM | 6240 MFI | 2440 MFI | 145 pM | 199 pM |  |  |  |  |  | HL161AN variant No. 3 (LC:N25S, HC:Q82S) (antibody, human IgG1, V domains shown, Variable domains only) VL: SYVLTQPPSVSVAPGQTARITCGGSNIGSTSVHWYQQKPGQAPVLVVHDDSDRPSGIPERFSGSNSGNTATLTISRVEAGDEADYYCQVRDSSSDHVIFGGGTKLTVLGQPKAAPSVTL VH: EVQLLESGGGLVQPGGSLRLSCAASEFTFGSCVMTWVRQAPGKGLEWVSVISGSGGSTYYADSVKGRFTISRDNSKNTLYLSMNSLRAEDTAVYYCAKTPWWLRSPFFDYWGQGTLVTVSS |
| 1290 pM | 350 pM | 6490 MFI | 2590 MFI | 208 pM | 283 pM | 0.000558 s⁻¹ | 2.68e+06 M⁻¹ s⁻¹ | 0.000551 s⁻¹ | 1.95e+06 M⁻¹ s⁻¹ | 200 pM | HL161AN variant No. 14 (LC:N25Q, HC:Q82S) (antibody, human IgG1, V domains shown, Variable domains only) VL: SYVLTQPPSVSVAPGQTARITCGGQNIGSTSVHWYQQKPGQAPVLVVHDDSDRPSGIPERFSGSNSGNTATLTISRVEAGDEADYYCQVRDSSSDHVIFGGGTKLTVLGQPKAAPSVTL VH: EVQLLESGGGLVQPGGSLRLSCAASEFTFGSCVMTWVRQAPGKGLEWVSVISGSGGSTYYADSVKGRFTISRDNSKNTLYLSMNSLRAEDTAVYYCAKTPWWLRSPFFDYWGQGTLVTVSS |
| 1300 pM | 300 pM | 6750 MFI | 2640 MFI | 169 pM | 249 pM | 0.000538 s⁻¹ | 3.19e+06 M⁻¹ s⁻¹ | 0.000566 s⁻¹ | 2.27e+06 M⁻¹ s⁻¹ | 220 pM | HL161AN variant No. 17 (LC:N25Q, HC:C32S Q82S) (antibody, human IgG1, V domains shown, Variable domains only) VL: SYVLTQPPSVSVAPGQTARITCGGQNIGSTSVHWYQQKPGQAPVLVVHDDSDRPSGIPERFSGSNSGNTATLTISRVEAGDEADYYCQVRDSSSDHVIFGGGTKLTVLGQPKAAPSVTL VH: EVQLLESGGGLVQPGGSLRLSCAASEFTFGSSVMTWVRQAPGKGLEWVSVISGSGGSTYYADSVKGRFTISRDNSKNTLYLSMNSLRAEDTAVYYCAKTPWWLRSPFFDYWGQGTLVTVSS |
| 1310 pM |  | 6920 MFI | 2650 MFI | 163 pM |  |  |  |  |  | 130 pM | HL161AN variant No. 6 (LC:N25S, HC:C32S Q82S) (antibody, human IgG1, V domains shown, Variable domains only) VL: SYVLTQPPSVSVAPGQTARITCGGSNIGSTSVHWYQQKPGQAPVLVVHDDSDRPSGIPERFSGSNSGNTATLTISRVEAGDEADYYCQVRDSSSDHVIFGGGTKLTVLGQPKAAPSVTL VH: EVQLLESGGGLVQPGGSLRLSCAASEFTFGSSVMTWVRQAPGKGLEWVSVISGSGGSTYYADSVKGRFTISRDNSKNTLYLSMNSLRAEDTAVYYCAKTPWWLRSPFFDYWGQGTLVTVSS |
| 1430 pM |  | 6750 MFI | 2660 MFI | 177 pM | 245 pM |  |  |  |  | 160 pM | HL161AN variant No. 9 (LC:N25S, HC:C32Y Q82S) (antibody, human IgG1, V domains shown, Variable domains only) VL: SYVLTQPPSVSVAPGQTARITCGGSNIGSTSVHWYQQKPGQAPVLVVHDDSDRPSGIPERFSGSNSGNTATLTISRVEAGDEADYYCQVRDSSSDHVIFGGGTKLTVLGQPKAAPSVTL VH: EVQLLESGGGLVQPGGSLRLSCAASEFTFGSYVMTWVRQAPGKGLEWVSVISGSGGSTYYADSVKGRFTISRDNSKNTLYLSMNSLRAEDTAVYYCAKTPWWLRSPFFDYWGQGTLVTVSS |
| 1150 pM | 330 pM | 6910 MFI | 2520 MFI | 198 pM | 226 pM | 0.000562 s⁻¹ | 2.84e+06 M⁻¹ s⁻¹ | 0.000542 s⁻¹ | 2.39e+06 M⁻¹ s⁻¹ | 250 pM | HL161AN variant No. 18 (LC:N25Q, HC:C32S Q82T) (antibody, human IgG1, V domains shown, Variable domains only) VL: SYVLTQPPSVSVAPGQTARITCGGQNIGSTSVHWYQQKPGQAPVLVVHDDSDRPSGIPERFSGSNSGNTATLTISRVEAGDEADYYCQVRDSSSDHVIFGGGTKLTVLGQPKAAPSVTL VH: EVQLLESGGGLVQPGGSLRLSCAASEFTFGSSVMTWVRQAPGKGLEWVSVISGSGGSTYYADSVKGRFTISRDNSKNTLYLTMNSLRAEDTAVYYCAKTPWWLRSPFFDYWGQGTLVTVSS |
| 1740 pM | 430 pM | 6210 MFI | 2540 MFI | 271 pM | 272 pM | 0.000556 s⁻¹ | 2.05e+06 M⁻¹ s⁻¹ | 0.000504 s⁻¹ | 1.86e+06 M⁻¹ s⁻¹ | 330 pM | HL161AN variant No. 16 (LC:N25Q, HC:Q82E) (antibody, human IgG1, V domains shown, Variable domains only) VL: SYVLTQPPSVSVAPGQTARITCGGQNIGSTSVHWYQQKPGQAPVLVVHDDSDRPSGIPERFSGSNSGNTATLTISRVEAGDEADYYCQVRDSSSDHVIFGGGTKLTVLGQPKAAPSVTL VH: EVQLLESGGGLVQPGGSLRLSCAASEFTFGSCVMTWVRQAPGKGLEWVSVISGSGGSTYYADSVKGRFTISRDNSKNTLYLEMNSLRAEDTAVYYCAKTPWWLRSPFFDYWGQGTLVTVSS |
| 1460 pM | 670 pM | 6350 MFI | 2570 MFI | 229 pM | 637 pM | 0.000563 s⁻¹ | 2.46e+06 M⁻¹ s⁻¹ | 0.000743 s⁻¹ | 1.17e+06 M⁻¹ s⁻¹ | 160 pM | HL161AN variant No. 5 (LC:N25S, HC:Q82E) (antibody, human IgG1, V domains shown, Variable domains only) VL: SYVLTQPPSVSVAPGQTARITCGGSNIGSTSVHWYQQKPGQAPVLVVHDDSDRPSGIPERFSGSNSGNTATLTISRVEAGDEADYYCQVRDSSSDHVIFGGGTKLTVLGQPKAAPSVTL VH: EVQLLESGGGLVQPGGSLRLSCAASEFTFGSCVMTWVRQAPGKGLEWVSVISGSGGSTYYADSVKGRFTISRDNSKNTLYLEMNSLRAEDTAVYYCAKTPWWLRSPFFDYWGQGTLVTVSS |
| 1280 pM | 210 pM | 6620 MFI | 2550 MFI | 152 pM | 187 pM |  |  |  |  |  | HL161AN variant No. 7 (LC:N25S, HC:C32S Q82T) (antibody, human IgG1, V domains shown, Variable domains only) VL: SYVLTQPPSVSVAPGQTARITCGGSNIGSTSVHWYQQKPGQAPVLVVHDDSDRPSGIPERFSGSNSGNTATLTISRVEAGDEADYYCQVRDSSSDHVIFGGGTKLTVLGQPKAAPSVTL VH: EVQLLESGGGLVQPGGSLRLSCAASEFTFGSSVMTWVRQAPGKGLEWVSVISGSGGSTYYADSVKGRFTISRDNSKNTLYLTMNSLRAEDTAVYYCAKTPWWLRSPFFDYWGQGTLVTVSS |
| 1470 pM | 270 pM | 6300 MFI | 2690 MFI | 156 pM | 240 pM |  |  |  |  |  | HL161AN variant No. 4 (LC:N25S, HC:Q82T) (antibody, human IgG1, V domains shown, Variable domains only) VL: SYVLTQPPSVSVAPGQTARITCGGSNIGSTSVHWYQQKPGQAPVLVVHDDSDRPSGIPERFSGSNSGNTATLTISRVEAGDEADYYCQVRDSSSDHVIFGGGTKLTVLGQPKAAPSVTL VH: EVQLLESGGGLVQPGGSLRLSCAASEFTFGSCVMTWVRQAPGKGLEWVSVISGSGGSTYYADSVKGRFTISRDNSKNTLYLTMNSLRAEDTAVYYCAKTPWWLRSPFFDYWGQGTLVTVSS |
| 1100 pM | 360 pM | 6540 MFI | 2570 MFI | 265 pM | 279 pM | 0.000601 s⁻¹ | 2.27e+06 M⁻¹ s⁻¹ | 0.000513 s⁻¹ | 1.84e+06 M⁻¹ s⁻¹ | 330 pM | HL161AN variant No. 15 (LC:N25Q, HC:Q82T) (antibody, human IgG1, V domains shown, Variable domains only) VL: SYVLTQPPSVSVAPGQTARITCGGQNIGSTSVHWYQQKPGQAPVLVVHDDSDRPSGIPERFSGSNSGNTATLTISRVEAGDEADYYCQVRDSSSDHVIFGGGTKLTVLGQPKAAPSVTL VH: EVQLLESGGGLVQPGGSLRLSCAASEFTFGSCVMTWVRQAPGKGLEWVSVISGSGGSTYYADSVKGRFTISRDNSKNTLYLTMNSLRAEDTAVYYCAKTPWWLRSPFFDYWGQGTLVTVSS |
| 1370 pM | 360 pM | 6660 MFI | 2580 MFI | 205 pM | 256 pM | 0.000573 s⁻¹ | 2.8e+06 M⁻¹ s⁻¹ | 0.000494 s⁻¹ | 1.93e+06 M⁻¹ s⁻¹ | 150 pM | HL161AN variant No. 10 (LC:N25S, HC:C32Y Q82T) (antibody, human IgG1, V domains shown, Variable domains only) VL: SYVLTQPPSVSVAPGQTARITCGGSNIGSTSVHWYQQKPGQAPVLVVHDDSDRPSGIPERFSGSNSGNTATLTISRVEAGDEADYYCQVRDSSSDHVIFGGGTKLTVLGQPKAAPSVTL VH: EVQLLESGGGLVQPGGSLRLSCAASEFTFGSYVMTWVRQAPGKGLEWVSVISGSGGSTYYADSVKGRFTISRDNSKNTLYLTMNSLRAEDTAVYYCAKTPWWLRSPFFDYWGQGTLVTVSS |
| 1160 pM | 350 pM | 5840 MFI | 2520 MFI | 200 pM | 283 pM | 0.000509 s⁻¹ | 2.54e+06 M⁻¹ s⁻¹ | 0.00056 s⁻¹ | 1.98e+06 M⁻¹ s⁻¹ | 170 pM | HL161AN variant No. 20 (LC:N25Q, HC:C32Y Q82S) (antibody, human IgG1, V domains shown, Variable domains only) VL: SYVLTQPPSVSVAPGQTARITCGGQNIGSTSVHWYQQKPGQAPVLVVHDDSDRPSGIPERFSGSNSGNTATLTISRVEAGDEADYYCQVRDSSSDHVIFGGGTKLTVLGQPKAAPSVTL VH: EVQLLESGGGLVQPGGSLRLSCAASEFTFGSYVMTWVRQAPGKGLEWVSVISGSGGSTYYADSVKGRFTISRDNSKNTLYLSMNSLRAEDTAVYYCAKTPWWLRSPFFDYWGQGTLVTVSS |
